The source of these data is patent US20200246484.

This data set has as its system MMP-responsive peptide (P3), cleavable 'L' form, conjugated to PEG (2, 5 or 10 kD) and attached directly to 13-nm Au nanoparticle SNAs.

For MMP-9, the “MMP9-mediated cleavage kinetics (fluorescence on release of the N-terminal fluorophore from the Au surface)” value is “decrease in cleavage rates for 5 kD and 10 kD PEG compared to 2 kD PEG”.
